According to patent publication US20220281959A1 (published 2022):
Positions count from the first letter of the chain named. Ends that are not written are not given here.

T1: BSA-PEP3 peptide (also: conjugated to BSA)
T1 peptide: PWNASWSNKSLDDIW

B1: anti-PEP3 mAb 5E12 (antibody, V domains shown)
VH: QIQLVQSGPELKKPGETVKISCKASGYTFRTYGMSWVKQAPGKGLKWMGWINTYSGVPRYVDDFKGRFALSLETSASTAYLQINNLKSEDTATYFCVREGYSYYGSSFHTMDYWGQGTSVTVSS
VL: DIQMTQTPLTLSVTIGHPASISCKSSQSLLHTNGKIYLNWLLQRPGQSPKRLIYLVSKLDSGVPDRFSGSGSGTDFTLKISRVEAEDLGVYYCLQSTHFPQTFGGGTKLEIK
B2: anti-PEP3 mAb 9B12 (antibody, V domains shown)
VH: QVQLQQSGPELVKPGASVKISCKASGYGFSDSWMNWVKQRPGKGLDWIGRIYPGDGDTDYNGKFKDKATLTADKSSTTAYMQLSSLTSEDSAVYFCAYLGHWGQGTLVTVSA
VL: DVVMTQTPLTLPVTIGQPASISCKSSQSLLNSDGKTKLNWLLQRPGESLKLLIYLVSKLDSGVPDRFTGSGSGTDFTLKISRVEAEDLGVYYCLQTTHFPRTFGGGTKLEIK
B3: anti-PEP3 mAb 15B4 (antibody, V domains shown)
VH: QVQLQQSGPELVRPGTSVKISCKAPGYSFTSHWMQWLRQRPGQGLEWIGEIFPGSGKTYYNEKFKDKATLTADTSSTTVYMQFSSLTSEDSAVYFCASDYDGGDYWGQGTTLTVSS
VL: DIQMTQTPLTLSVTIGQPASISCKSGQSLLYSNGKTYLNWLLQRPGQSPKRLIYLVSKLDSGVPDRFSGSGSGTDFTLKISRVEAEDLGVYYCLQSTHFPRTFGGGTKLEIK
B4: anti-PEP3 mAb 8D5 (antibody, V domains shown)
VH: QVQLQQPGAELIEPGTSVKLSCKASGYTFTTYWMHWVKQRPGQGLEWIGMIHPNSGDTFYNENFKNKATLTVDISSSTVYMELSSLTSEDSAVYSCVKAGTGALDYWGQGTTLTVSS
VL: DVVMTQTPLSLPVSLGDQASISCRSSQSIVHSNRYTYLEWYLQRPGQSLKLLIYGVSNRFSGVPDRFSGSGSGTDFILKISRVEAEDMGVYYCFQGTHVPFTFGSGTKLEIK
B5: anti-PEP3 mAb 3A2 (antibody, V domains shown)
VH: QVQLQQPGAELVKPGASVKLSCKASGYIFTNYWMHWVRQRPGQGPEWIGMIHPNRGDLHYSEKFNNKATLTVDKSSSTAYMQLNSLASEDSAVYFCARAGLGVFDYWGQGSTLTVSS
VL: DVVMTQTPLSLPVSLGDQVSMSCRSSQSIEHSNRNTYLEWYLHKPGQAPQLLIYGVSNRFTGVPDRFSGSGSGTDFTLKISRVEAEDMGVYHCLQGTHVPFTFGSGTKLEIK
B6: anti-PEP3 gp41 mAb 4G1 (antibody, V domains shown)
VL: B4 VL with P12C, S25T, R44K, S48P, V56I, S57A, I77T, F94L
V domain: QVQLQQPGAELVKPGASVKLSCKASGYIFRNYWMHWVKQRPGQGLEWIGMIHPNSDITHYNEKFKNRATLTVDKSSSTAYMQLNSLTSEDSAVYYCARGGLGVFDYWGQGTALRVSS

Each binder was assayed against T2, HXB2 gp41 recombinant protein (a.a. 534-681) (UniProt P04578 534-681) (assay: ELISA; curve not in saturation).
For B1, the EC50 was greater than 20 µg/mL. In the case of B2, the EC50 is reported as greater than 137 µg/mL.

What follows are binders tested against T3, HIV-1 MN gp41 (a.a. 542-666) produced in S2 cells (UniProt P05877 542-666) (assay: ELISA; curve not in saturation).
B3 gave an EC50 greater than 11 µg/mL. B1 was tested, and the EC50 was greater than 19 µg/mL. B2 was tested, and the EC50 was greater than 700 µg/mL.

Biological target: T1, BSA-PEP3 peptide
Test: ELISA
B3 showed an EC50 of 0.02 µg/mL. B4 gave an EC50 of 0.006 µg/mL. Work on B5 yielded an EC50 of 0.007 µg/mL. In the case of B1, the EC50 is reported as 0.015 µg/mL. For B2, the EC50 was 0.02 µg/mL.

Each binder was assayed against T2, HXB2 gp41 recombinant protein (a.a. …) (assay: ELISA).
B3 was tested, and the EC50 was 0.12 µg/mL. B4 showed an EC50 of 0.0005 µg/mL. In the case of B5, the EC50 is reported as 0.0044 µg/mL.

Each binder was assayed against T3, HIV-1 MN gp41 (a.a. 542-666) produced … (assay: ELISA).
In the case of B4, the EC50 is reported as 0.09 µg/mL. With B5 the EC50 was 0.78 µg/mL.

The binders below were run against T2, HXB2 gp41 recombinant protein (a.a. …) (assay: sandwich ELISA; capture Ab).
Work on B3 yielded an EC50 of 0.355 µg/mL. B4 was tested, and the EC50 was 0.018 µg/mL. B5 showed an EC50 of 0.0098 µg/mL.

Each binder was assayed against T4, HIV-1 MN gp41 recombinant protein produced in E. coli (565-771Delta642-725) (HIV-1 MN) (assay: ELISA).
B3 gave an EC50 of 0.3 µg/mL. B4 gave an EC50 of 0.02 µg/mL. For B6, the EC50 was 0.005 µg/mL. Work on B5 yielded an EC50 of 0.02 µg/mL. Work on B1 yielded an EC50 greater than 13 µg/mL. B2 showed an EC50 greater than 30 µg/mL.

Biological target: T1, BSA-PEP3 peptide
Test: ELISA
Remark: another data set of the same source
B3 was tested, and the EC50 was 0.02 µg/mL. With B4 the EC50 was 0.006 µg/mL. For B5, the EC50 was 0.007 µg/mL. Binder B1 has an EC50 of 0.015 µg/mL. Work on B2 yielded an EC50 of 0.02 µg/mL.

Biological target: T2, HXB2 gp41 recombinant protein (a.a. …)
Test: ELISA
Remark: another data set of the same source
Work on B3 yielded an EC50 of 0.12 µg/mL. B4 gave an EC50 of 0.0005 µg/mL. Binder B5 has an EC50 of 0.0044 µg/mL. Work on B1 yielded an EC50 greater than 20 µg/mL. Work on B2 yielded an EC50 greater than 137 µg/mL.

Biological target: T3, HIV-1 MN gp41 (a.a. 542-666) produced …
Test: ELISA
Remark: another data set of the same source
B3 gave an EC50 greater than 11 µg/mL. In the case of B4, the EC50 is reported as 0.09 µg/mL. For B5, the EC50 was 0.78 µg/mL. For B1, the EC50 was greater than 19 µg/mL. With B2 the EC50 was greater than 700 µg/mL.

Biological target: T4, HIV-1 MN gp41 recombinant protein …
Test: ELISA
Remark: another data set of the same source
B3 gave an EC50 of 0.3 µg/mL. Work on B4 yielded an EC50 of 0.02 µg/mL. In the case of B6, the EC50 is reported as 0.005 µg/mL. B5 showed an EC50 of 0.02 µg/mL. Work on B1 yielded an EC50 greater than 13 µg/mL. B2 gave an EC50 greater than 30 µg/mL.
